Laboratory results as given in the supplement of paper PMC12667976.

B1: library; numbered along this chain (parent)
chain: MATDAALRRLLRLHRTEIAVAVDSAFPLLHALADHDVVPEDKFQETLHLKEKEGCPQAFHALLSWLLTQDSTAILDFWRVLFKDYNLERYGRLQPILDSFPKDVDLSQPRKGRKPPAVPKALVPPPRLPTKRKASEEARAAAPAALTPRGTASPGSQLKAKPPKKPESSAEQQRLPLGNGIQTMSASVQRAVAMSSGDVPGARGAVEGILIQQVFESGGSKKCIQVGGEFYTPSKFEDSGSGKNKARSSSGPKPLVRAKGAQGAAPGGGEARLGQQGSVPAPLALPSDPQLHQKNEDECAVCRDGGELICCDGCPRAFHLACLSPPLREIPSGTWRCSSCLQATVQEVQPRAEEPRPQEPPVETPLPPGLRSAGEEVRGPPGEPLAGMDTTLVYKHLPAPPSAAPLPGLDSSALHPLLCVGPEGQQNLAPGARCGVCGDGTDVLRCTHCAAAFHWRCHFPAGTSRPGTGLRCRSCSGDVTPAPVEGVLAPSPARLAPGPAKDDTASHEPALHRDDLESLLSEHTFDGILQWAIQSMARPAAPFPS

Variants of: B1
Assay: AIRE transcriptional activation functional score (insulin promoter-GFP; nonsense median 0, synonymous median 1) (normalised score); higher = higher AIRE activity (more reporter activation)
Conditions: with insulin promoter-GFP reporter in HEK293
Protocol: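 Deep mutational scan of full-length human AIRE (codon-optimized cDNA, DT-POPCode NNN libraries over three regions) integrated at a Bxb1 landing pad in HEK293 cells carrying an insulin core promoter-GFP reporter at a Flp-In site. Cells were sorted for the top 10% GFP about 14 days after transfection. Variant frequency log-ratios (select vs non-select, TileSeq) were rescaled so that the nonsense median is 0 and the synonymous median is 1, then averaged over biological replicates.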

AIRE transcriptional activation functional score, by site and new letter:
S234: Y 1.11 | K 0.869 | E 0.552 | Q 1.22 | D -0.22 | G 1.16 | F 1.31 | C 1.53 | T 0.61 | L 1.04 | V 1.19 | A 1.24 | I 0.96 | P 1.19 | R 1.21 | W 0.775 | M 1.15
R247: Y 0.724 | M 1.42 | K 1.2 | D 0.268 | F 0.902 | T 0.898 | N 0.919 | I 0.937 | P 0.344 | C 1.05 | S 0.966 | L 0.895 | G 0.529 | Q 0.669 | E 1.52 | W 0.502 | A 0.732 | H -1.26 | V 1.16
G240: K 1.07 | A 0.723 | L 1.2 | M 1.08 | P 0.78 | W 1.09 | I 0.539 | T 1.47 | R 1.01 | N 1.96 | E 0.406 | S 1.1 | Q 0.0726 | F 0.96 | Y -0.451 | C 0.742 | V 0.921 | H 0.0803
P233: F -0.0788 | Q 0.416 | V 0.512 | K 0.232 | H 1.29 | G 1.15 | N 1.51 | S 1.01 | A 1.09 | Y 0.576 | L 0.385 | R 1.18 | T 1.07 | C 1.17 | I 0.184 | D 0.675
S248: V 0.819 | R 0.215 | Y 1.07 | L 1.11 | M 1.01 | A 0.947 | G 1.13 | F 1.09 | W 1.01 | N 0.778 | C 1.03 | Q 0.368 | D 1.25 | I 1.16 | P 1.33 | T 0.975 | E 0.474 | K 0.517
G242: Q 0.988 | F 1.23 | R 0.611 | K 0.747 | C 1.06 | T -0.775 | W 0.936 | V 1.04 | S 0.694 | Y 1.6 | P 0.412 | E 0.0818 | I -0.56 | A 1.19 | D 0.951 | L 1.13
A246: W 1.47 | F 1.39 | S 0.759 | V 1.12 | K 0.609 | E 0.55 | N 0.102 | C 1.22 | I 0.408 | L 1 | T 0.841 | D 0.858 | G 0.693 | R 0.482 | H 1.42 | Q -0.0407 | P 1.05 | Y 1.43
K245: G 0.76 | P 1.07 | S 0.252 | E 0.245 | I 0.196 | Q 0.887 | D 0.145 | L 0.453 | N 0.375 | F 1.67 | T -0.0733 | W 0.978 | Y 1.21 | A 1.33 | M 0.0585 | C 1 | V 1.32 | H 1.35 | R 0.472
E237: R 0.603 | Q 1.03 | A 1.08 | V 1.19 | S 0.791 | F -1.02 | G 1.06 | L 1.16 | C 1.16 | K 0.979 | Y 0.617 | W 0.832 | I 0.885 | P 0.729 | H 0.943 | D 0.996 | M 1.3 | T 0.952
K235: W 1.15 | E 0.408 | C 1.5 | A 0.515 | S 0.877 | H 0.221 | T 0.985 | M 1.33 | Y 1.01 | G 1.17 | L 0.897 | I 0.627 | V 1.45 | P 1.43 | R 1.19 | Q 1.04 | N 0.479 | F 0.827
F236: G 0.726 | I 1.01 | R 0.401 | Y 0.564 | V 0.877 | W 1.44 | A 1.03 | T -0.222 | P 0.266 | M -0.434 | L 0.651 | C 0.925 | K 0.0925 | N 1.68 | S 0.712
N244: F 1.08 | E 0.249 | Y 1.25 | L 0.301 | M -0.168 | S 1.3 | R 0.573 | K -0.184 | A 0.269 | V 0.206 | D 1.1 | H 0.405 | C 0.374 | T 1.14 | G 0.138 | I 1.07 | Q 1.19
S239: W 1.37 | V 1.13 | N 1.4 | I 0.737 | M 1.69 | D 0.131 | L 1.31 | P 1.06 | A 1.2 | T 1.17 | C 1.16 | R 1.13 | K -0.0573 | H 1.27 | E 0.783 | Y 1.43 | G 1.05 | F 1.06
D238: R 0.333 | V 1.23 | Y 1.12 | G 1 | M 0.876 | A 1.15 | H 1.34 | C 1.24 | E 0.685 | N 0.588 | F 1.04 | P 1.5 | S 0.788 | L 1.13 | Q 0.948 | I 1.27 | K 0.355 | T 0.755
K243: A 0.56 | S 1 | C 0.711 | E 0.511 | H 1.02 | M 1.31 | R 1.1 | I 1.02 | P 0.97 | Q 0.804 | L 1.47 | D 0.0348 | T 1.08 | W 1.3 | F 0.81 | N 1.06 | Y -0.257 | G 1.03 | V 0.856
S241: W 0.868 | M 1.1 | V 0.868 | C 1.11 | Y 1.12 | Q 0.992 | H 0.567 | K 0.301 | F 1.2 | L 1.17 | R 0.436 | E 1.29 | P 1.31 | I 1.06 | T 1.11 | A 0.598 | G 0.897 | D 1.13 | N 1.13
S250: H 0.963 | T 0.687 | R 0.0524 | A 0.792 | L 1.02 | Q -0.615 | F 1.13 | P -0.109 | V 1.1 | I 1.11 | K 0.556 | M 1.68 | N 0.847 | E 0.4 | D 0.427 | C 1.23 | G 0.835
T232: W 0.451 | S 1.15 | V 1.07 | Q 1.38 | L 1.1 | E 1.05 | H 0.729 | G 0.941 | M 1.22 | I 0.928 | K 1.16 | Y 0.775 | R 1.18 | P 0.894 | N 0.834 | F -0.0868
S249: C 1.33 | W 1.81 | L 0.67 | H 0.402 | T 0.256 | Y 0.973 | M 1.28 | R -0.21 | V 1.12 | F 0.707 | E -0.0377 | D 0.114 | N 0.548 | Q 0.961 | I 1.25 | P 0.451 | A 1.07 | G 1.22
